Data published in patent US20250171562A1 (ALK ABELL, published 2025).
Blank lines part the entries; values can stand above or below the binder they belong to.

Target: T1, recombinant human IgE (human, UniProt P01854-1 1-428)
T1 construct: made in-house (ALK); preloaded on immobilised FcεRIα in the displacement ELISA
Assay: IgE-FcεRIα displacement ELISA
Outline: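 Streptavidin-coated plates carried site-specifically biotinylated recombinant human FcεRIα, loaded with recombinant human IgE at 13 ng/ml. sdAbs in a pM–μM series were added for 1 h, and displaced IgE was washed off. Percent displacement was the signal reduction versus the no-sdAb control, giving EC50 and maximal effect.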

T1 sequence (P01854 other isoform, or with tags, fused parts or gaps): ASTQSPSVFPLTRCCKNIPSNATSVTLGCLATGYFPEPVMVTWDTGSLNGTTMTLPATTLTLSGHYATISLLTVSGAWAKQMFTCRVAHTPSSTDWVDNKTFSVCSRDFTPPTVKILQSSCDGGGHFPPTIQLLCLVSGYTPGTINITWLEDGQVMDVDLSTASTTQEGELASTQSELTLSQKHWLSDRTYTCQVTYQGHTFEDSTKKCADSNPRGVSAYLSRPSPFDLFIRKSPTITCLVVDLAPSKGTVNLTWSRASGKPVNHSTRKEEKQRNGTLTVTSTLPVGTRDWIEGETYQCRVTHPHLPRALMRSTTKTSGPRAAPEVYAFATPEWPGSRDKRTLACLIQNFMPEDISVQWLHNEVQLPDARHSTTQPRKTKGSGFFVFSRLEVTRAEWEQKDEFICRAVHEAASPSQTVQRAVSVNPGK

Max effect: 45%
B1: CIgG4F2A1(G4S)3 (Fc fusion)
chain 1: GPPCPPCPAPEFLGGPSVFLFPPKPKDTLMISRTPEVTCVVVDVSQEDPEVQFNWYVDGVEVHNAKTKPREEQFNSTYRVVSVLTVLHQDWLNGKEYKCKVSNKGLPSSIEKTISKAKGQPREPQVYTLPPCQEEMTKNQVSLWCLVKGFYPSDIAVEWESNGQPENNYKTTPPVLDSDGSFFLYSRLTVDKSRWQEGNVFSCSVMHEALHNHYTQKSLSLSLGKGGGGSGGGGSGGGGSDVQLQESGGGLVQAGGSLKLSCAASGGSLSRYDMGWFRQAPGKEREFVARISWSGDTKYYADAVEGRFAISRDNAQNTVYLQMNSLKPEDTAVYYCAVALYGNRGYYDVNTYSYWGQGTRVTVS
chain 2: GPPCPPCPAPEFLGGPSVFLFPPKPKDTLMISRTPEVTCVVVDVSQEDPEVQFNWYVDGVEVHNAKTKPREEQFNSTYRVVSVLTVLHQDWLNGKEYKCKVSNKGLPSSIEKTISKAKGQPREPQVCTLPPSQEEMTKNQVSLSCAVKGFYPSDIAVEWESNGQPENNYKTTPPVLDSDGSFFLVSRLTVDKSRWQEGNVFSCSVMHEALHNHYTQKSLSLSLGKGGGGSGGGGSGGGGSEVQLLESGGGLVQPGGSLRLSCAASGFTFGNYDMAWVRQAPGKRPEWVSSIDTGGDITHYADSVKGRFTISRDNAKNTLYLQMNSLRPEDTAVYWCATDEEYALGPNEFDYYGQGTLVTVSS

Max effect: 30%
B2: CIgG4F3A1(RS) (Fc fusion)
chain 1: GPPCPPCPAPEFLGGPSVFLFPPKPKDTLMISRTPEVTCVVVDVSQEDPEVQFNWYVDGVEVHNAKTKPREEQFNSTYRVVSVLTVLHQDWLNGKEYKCKVSNKGLPSSIEKTISKAKGQPREPQVYTLPPCQEEMTKNQVSLWCLVKGFYPSDIAVEWESNGQPENNYKTTPPVLDSDGSFFLYSRLTVDKSRWQEGNVFSCSVMHEALHNHYTQKSLSLSLGKRSDVQLQESGGGLVQAGGSLKLSCAASRGSLSRWDVAWFRQAPGKERSFVTRISWSGTTSYYADAVKGRFAISRDNAKNTVYLQMNSLKPEDTAVYYCAVALYGNRGYYDVNAHSYWGQGTQVTVS
chain 2: GPPCPPCPAPEFLGGPSVFLFPPKPKDTLMISRTPEVTCVVVDVSQEDPEVQFNWYVDGVEVHNAKTKPREEQFNSTYRVVSVLTVLHQDWLNGKEYKCKVSNKGLPSSIEKTISKAKGQPREPQVCTLPPSQEEMTKNQVSLSCAVKGFYPSDIAVEWESNGQPENNYKTTPPVLDSDGSFFLVSRLTVDKSRWQEGNVFSCSVMHEALHNHYTQKSLSLSLGKRSEVQLLESGGGLVQPGGSLRLSCAASGFTFGNYDMAWVRQAPGKRPEWVSSIDTGGDITHYADSVKGRFTISRDNAKNTLYLQMNSLRPEDTAVYWCATDEEYALGPNEFDYYGQGTLVTVSS

Max effect: 35%
B3: CIgG4F2A1(G4S)2 (Fc fusion)
chain 1: GPPCPPCPAPEFLGGPSVFLFPPKPKDTLMISRTPEVTCVVVDVSQEDPEVQFNWYVDGVEVHNAKTKPREEQFNSTYRVVSVLTVLHQDWLNGKEYKCKVSNKGLPSSIEKTISKAKGQPREPQVYTLPPCQEEMTKNQVSLWCLVKGFYPSDIAVEWESNGQPENNYKTTPPVLDSDGSFFLYSRLTVDKSRWQEGNVFSCSVMHEALHNHYTQKSLSLSLGKGGGGSGGGGSDVQLQESGGGLVQAGGSLKLSCAASGGSLSRYDMGWFRQAPGKEREFVARISWSGDTKYYADAVEGRFAISRDNAQNTVYLQMNSLKPEDTAVYYCAVALYGNRGYYDVNTYSYWGQGTRVTVS
chain 2: GPPCPPCPAPEFLGGPSVFLFPPKPKDTLMISRTPEVTCVVVDVSQEDPEVQFNWYVDGVEVHNAKTKPREEQFNSTYRVVSVLTVLHQDWLNGKEYKCKVSNKGLPSSIEKTISKAKGQPREPQVCTLPPSQEEMTKNQVSLSCAVKGFYPSDIAVEWESNGQPENNYKTTPPVLDSDGSFFLVSRLTVDKSRWQEGNVFSCSVMHEALHNHYTQKSLSLSLGKGGGGSGGGGSEVQLLESGGGLVQPGGSLRLSCAASGFTFGNYDMAWVRQAPGKRPEWVSSIDTGGDITHYADSVKGRFTISRDNAKNTLYLQMNSLRPEDTAVYWCATDEEYALGPNEFDYYGQGTLVTVSS
